# Measured values as given in paper PMC3142182.
# Target: HCV NS5A protein, genotype 1b (hepatitis C virus genotype 1b) (UniProt Q9WMX2)
# Test: co-IP; detergent-solubilized lysates of HEK 293T cells expressing the proteins; immunoprecipitation with mAb against 1b5A, Western blot for NS5B; protocol of Qi et al. [29]; three independent experiments
substance,measurement,value
"HCV NS5B (RNA-dependent RNA polymerase), genotype 1b (Con1), full length (from UniProt Q9WMX2 2420-3010) (enzyme)",fold more co-precipitated than 1bΔ21,> 2 fold
